Positions count from the first letter of the chain named. Names and notes keep the numbering of the source. Values joined by “and” are separate entries in the source; they are usually repeats but may differ in a detail not shown here. Equal entries are not always repeated.
What was measured:
ATG 1240 = assay: Mimicry of tissue attenuation using long pass filters, transfected HEK293T cells; assay type: cell-based, click beetle; conditions: HEK293T cells expressing ATG 1240
Experimental: A transfection complex was prepared by diluting ATG 1240 DNA or Luc2 DNA (pF4Ag-Luc2) to 100 ng/μL, and then 2× serial dilutions prepared in 50 ng/μL pGEM carrier DNA. 40 μL of the diluted DNA was the mixed with 160 μL phenol red free OptiMEM and 16 μL of FuGENE® HD and incubated for 20 min. 5 μL of each transfection complex was added to wells of a 96-well black assay plates and then 100 μL of diluted HEK293T cells (200,000/mL in DMEM+10% FBS) was added. The cells were grown overnight at 37° C. with CO2.
To assay the cells, 4 mM D-luciferin, 2 mM PBI-4813 and 2 mM PBI-4739 substrate solutions were prepared in DMEM+10% FBS. 100 μL of the D-luciferin solution was added to cells expressing Luc2 and ATG 1240, and 100 μL of PBI-4813 or PBI-4739 solution was added to ATG 1240 expressing cells. Samples were incubated for 10 min at 37° C., and luminescence detected on GloMax® Discover (heated to 37° C.) with no filter, 610 nm Long Pass (LP) filter, 665 nm LP filter, 695 nm LP filter, 720 nm LP filter or 760 nm LP filter.

[1] = Substrate inhibition of luciferase activity at high substrate concentration; assay type: biochemical; conditions: PBI-4813 at concentrations greater than ten times the Km
[2] = Luminescence of ATG 1230 and ATG 1240 cell lysates, GloMax Discover with red-sensitive PMT; assay type: biochemical; conditions: for Luminescence, PBI-4739 / Luminescence, PBI 4813: cell lysate; for Luminescence, PBI-4739: 20 μM PBI-4739; for Luminescence, PBI 4813: 20 μM PBI-4813, GloMax Discover red-sensitive PMT; for PBI-4813/PBI-4739: ratio of luminescence with the two substrates
Experimental: (§1) 2. Cell lysates were prepared from cells containing the variants listed in Table 3 by diluting 100 μL of induced culture with 100 μL of lysis buffer (0.3×PLB, 0.006U RQ DNAse1) using a Tecan liquid handling robot. 50 μL of each cell lysate was assayed with either PBI-4813 or PBI-4739 (20 μM in Bright-Glo™ assay buffer containing 1 mM ATP), and luminescence detected on an ImageQuant CCD imager. Luminescence of the variants was normalized to CBR luciferase (FIG. 8).
Variant clones identified as ATG 1230 (CBR+389F+444R+251S) and ATG 1240 (CBR+334S+351R) were further evaluated for their luminescence, spectral property, Km and live cell kinetics with either PBI-4813 or PBI-4739. These variants were cloned and expressed as described in Example 2 except the template was pF4Ag-CBR, i.e., no HALOTAG®.
A. Luminescence with PBI-4813 and PBI-4739. Cell lysates of these variant clones were prepared and assayed for luminescence as described in Example 6. Luminescence was detected on a GloMax® Discover equipped with a red-sensitive photomultiplier tube (PMT) and compared to CBR luciferase (Table 5 and FIG. 10).

[3] = Combinations of H-acceptor and library screen mutants, lysate luminescence; assay type: biochemical; conditions: for Luminescence normalized to CBR luciferase, D-LH2 (luciferin): substrate D-LH2 (luciferin); for Luminescence normalized to CBR luciferase, PBI-4739: substrate PBI-4739; for Luminescence normalized to CBR luciferase, PBI-4813: substrate PBI-4813
Experimental: as §1
Combinations of the Hydrogen acceptor mutants identified in Example 6 were designed and prepared using the QuikChange Multi Site-Directed Mutagenesis Kit (Agilent). Variants were cloned and expressed as described in Example 2 except the template was pF4Ag-CBR. Variants were screened as described in Example 6. Luminescence of the variants using luciferin (“D-LH2”), PBI-4813, and PBI-4739 was normalized to CBR luciferase (Table 4 and FIG. 9).

[4] = Secondary library screen using ATG 1240 as template, lysate luminescence; assay type: biochemical; conditions: ATG 1240 template (WT = ATG-1240)
Experimental: A random clone library was prepared as described in Example 2 using ATG 1240 as a template. The variants were then cloned into pF4Ag (no HT7). The library was screened as follows (50 plates total):
i. Primary Screen. Cells were grown as described in Example 2. Cell lysates were prepared by diluting 100 μL of induced culture with 100 μL of lysis buffer (0.3×PLB+0.006U RQDNAse1) using a Tecan liquid handling robot. 50 μL of each cell lysate was then assayed with either PBI-4813 or PBI-4739. (20 μM substrate in Bright-Glo™ assay buffer containing 1 mM ATP). Luminescence was detected on a GloMax® Discover.
ii. Secondary Screen. Cells from each hit in the primary screen were streaked onto new plates and grown overnight. Colonies were picked in quadruplicate and cultures were grown as described in Example 2. 50 μL of each cell lysate was assayed with 50 μL of BrightGlo™ assay buffer containing 1 mM ATP and 30 μM PBI-4813 or 50 μM PBI-4739. Luminescence was detected on a GloMax® Discover Multimode Detection System (Table 6). The variants in this library were identified as having on average between 2-3 mutations per gene.

[5] = Km titration of ATG 1240 compared with CBR in live HEK293T cells; assay type: cell-based; conditions: 60 min at 37° C.
Experimental: HEK293T cells were plated at 15,000 cells/well into wells of 96-well white assay plates and grown overnight. A transfection mixture was made containing 6.6 μg of CBR or ATG-1240 DNA and 20 μL FuGENE® HD in a total volume of 310 μL OptiMEM. The mixture was incubated at room temperature for 10 min. The cells were then transfected, in triplicate, with 5 μL of transfection complex and grown overnight.
The transfected cells were then assayed. 2× serial dilutions of PBI-4813 and PBI-4739 starting at 2 mM in CO2 independent media+0.5% FBS were prepared. The growth media from the transfected cells was removed and replaced with one of the serial diluted substrate containing media. The cells were incubated 60 min at 37° C., and luminescence detected on a modified GloMax® Discover luminometer containing a red shifted PMT (see FIG. 23A and FIG. 23B). The Km of ATG 1240 was about 5 times higher than the Km of CBR with PBI-4813. The Km of ATG 1240 was about 3 times higher than the Km of CBR with PBI-4739.

[6] = Recombination of ATG 1240 library mutants, lysate luminescence; assay type: biochemical
Excerpt: 2. […] Luminescence of the variants was normalized to CBR luciferase (FIG. 8). Combinations of the ATG 1240 library mutants identified in Example 9 were designed and prepared using DNA shuffling ([…] USA 91:10747-10751). Briefly, a library of mutant genes was created via DNA shuffling. The mutant genes were then cloned into the pF4Ag vector and screened as described in Example 6. Luminescence was detected on a GloMax® Discover Multimode Detection System and normalized to ATG-1240 luciferase (Table 8 and FIG. 15).

[7] = listed as 251S + 389F + 444R (343 template)

O=C(O)[C@H]1CSC(c2nc3ccc(O)cc3s2)=N1 [D-luciferin, D-(−)-2-(6′-hydroxy-2′-benzoth-iazolyl)-Δ^2-thiazolin-4-carboxylic acid]
luminescence of ATG 1240 when light is attenuated with long pass filters (ATG 1240; 37° C.): may be brighter than with PBI-4739 | luminescence of ATG 1240 at the greatest light attenuation (ATG 1240; long pass filters): comparable

B1: CBR: click beetle red luciferase polypeptide of SEQ ID NO: 1 (protein)
chain: MVKREKNVIYGPEPLHPLEDLTAGEMLFRALRKHSHLPQALVDVVGDESLSYKEFFEATVLLAQSLHNCGYKMNDVVSICAENNTRFFIPVIAAWYIGMIVAPVNESYIPDELCKVMGISKPQIVFTTKNILNKVLEVQSRTNFIKRIIILDTVENIHGCESLPNFISRYSDGNIANFKPLHFDPVEQVAAILCSSGTTGLPKGVMQTHQNICVRLIHALDPRYGTQLIPGVTVLVYLPFFHAFGFHITLGYFMVGLRVIMFRRFDQEAFLKAIQDYEVRSVINVPSVILFLSKSPLVDKYDLSSLRELCCGAAPLAKEVAEVAAKRLNLPGIRCGFGLTESTSAIIQTLGDEFKSGSLGRVTPLMAAKIADRETGKALGPNQVGELCIKGPMVSKGYVNNVEATKEAIDDDGWLHSGDFGYYDEDEHFYVVDRYKELIKYKGSQVAPAELEEILLKNPCIRDVAVVGIPDLEAGELPSAFVVKQPGTEITAKEVYDYLAERVSHTKYLRGGVRFVDSIPRNVTGKITRKELLKQLLVKAGGV
inhibition of luciferase activity by PBI-4813 [1]: inhibits the activity | Luminescence, PBI-4739 [2]: 17,431 | Luminescence, PBI 4813 [2]: 98,556 | PBI-4813/PBI-4739 [2]: 5.7 | Luminescence normalized to CBR luciferase, D-LH2 (luciferin) [3]: 1.0 | Luminescence normalized to CBR luciferase, PBI-4739 [3]: 1.0 | Luminescence normalized to CBR luciferase, PBI-4813 [3]: 1.0

B2: ATG 1230: CBR variant I389F, S444R, G251S (SEQ ID NO: 3) (protein)
chain: B1 chain with G251S, I389F, S444R
inhibition of luciferase activity by PBI-4813 [1]: inhibits the activity | Luminescence, PBI-4739 [2]: 26,595 | Luminescence, PBI 4813 [2]: 310,342 | PBI-4813/PBI-4739 [2]: 11.7 | Luminescence normalized to CBR luciferase, D-LH2 (luciferin) [3, 7]: 0.6 and 0.5 | Luminescence normalized to CBR luciferase, PBI-4739 [3, 7]: 1.6 and 1.4 | Luminescence normalized to CBR luciferase, PBI-4813 [3, 7]: 3.4 and 3.2

B3: ATG 1240: CBR variant R334S and G351R (SEQ ID NO: 2) (protein)
chain: B1 chain with R334S, G351R
inhibition of luciferase activity by PBI-4813 [1]: does not show this inhibition | Luminescence, PBI-4739 [2]: 37,169 | Luminescence, PBI 4813 [2]: 71,299 | PBI-4813/PBI-4739 [2]: 1.9 | Luminescence, secondary screen, PBI-4813 ([4]; 30 μM PBI-4813, 1 mM ATP): 1.2 and 1.01 and 1.0 and 0.9 and 1.02 and 0.97 | Luminescence, secondary screen, PBI-4739 ([4]; 50 μM PBI-4739, 1 mM ATP): 1.1 and 1.05 and 1.0 and 0.99 and 0.97 and 0.9 | Km higher than the Km of CBR with PBI-4739 [5]: about 3 times | Km higher than the Km of CBR with PBI-4813 [5]: about 5 times

B4: 5G5: ATG 1240 variant S51N + S444R (SEQ ID NO: 4) (protein)
chain: B1 chain with S51N, R334S, G351R, S444R
Luminescence normalized to ATG-1240 luciferase, D-LH2 ([6]; substrate D-LH2): 2.8 | Luminescence normalized to ATG-1240 luciferase, PBI-4739 ([6]; substrate PBI-4739): 3.8 | Luminescence normalized to ATG-1240 luciferase, PBI-4813 ([6]; substrate PBI-4813): 4.0

Reference: patent US12460245B2, “Luciferase sequences utilizing infrared-emitting substrates to produce enhanced luminescence” (Promega Corporation, priority 2014, dated 2025)
